Key:
[1] = test system: EL-4 tumours; test: Tumour vascularity and blood flow (CD31, CD105, DiO7) in EL-4 tumours; format: in vivo, mice; conditions: day 56
Method: To determine tumour vascularity, 10-μm frozen tumour sections were fixed with acetone, rinsed with PBS, blocked with 2% BSA for 2 hr, and incubated overnight with the anti-CD31 antibody MEC13.3, or an anti-CD105 mAb. They were subsequently incubated for 30 min with secondary antibodies using the VECTASTAIN Universal Quick kit (Vector Laboratories, Burlingame, Calif., USA); and developed with Sigma FAST DAB (3,3′-diaminobenzidine tetrahydrochloride) and CoCl2 enhancer tablets (Sigma), and counterstained with hematoxylin. Stained blood vessels were counted in five or six blindly chosen random fields (0.155 mm^2) at ×40 magnification, and the mean of the highest three counts was calculated. To visualize blood vessels open to flow, DiO7 (Molecular Probes, Eugene, Oreg.) was injected into the tail vein at a concentration of 1.0 mg/Kg one minute prior to collecting tissues, as described previously (Ding et al., 2001). The concentric circles method was also used to assess vascularity.
The effects of Lf+ and milk fat on tumour blood flow and vascularity were analyzed by staining of tumour sections prepared as described in Example 5 with anti-CD31 and anti-CD105 mAbs, and by perfusion of DiO7, and respectively. […] Stained blood vessels were counted from six mice in six blindly chosen random fields.

[2] = test system: EL-4 target cells; test: Anti-tumour cytolytic activity of splenocytes from diet-fed mice; format: in vivo; conditions: day 56
Method: Splenocytes were harvested following tumour cell injection on days specified. They were incubated at 37° C. with EL-4 target cells in graded E:T ratios in 96-well roundbottom plates. After a 4-hour incubation, 50 μl of supernatant was collected, and lysis was measured using the Cyto Tox 96 Assay Kit (Promega, Madison, Wis., USA). Background controls for non-specific target and effector cell lysis were included. After background subtraction, percentage of cell lysis was calculated using the formula: 100×(experimental spontaneous effector-spontaneous target/maximum target-spontaneous target).
Splenocytes were harvested from the mice described in Example 4 at day 56 and tested for their cytolytic activity against EL-4 target cells. […] The anti-tumour cytolytic activity was further increased by 86% (P<0.001) for mice fed the combination of Lf+ and milk fat compared to controls.

[3] = test system: EL-4 tumours; test: Tumour apoptosis (TUNEL / annexin-V-fluos) in EL-4 tumour sections; format: in vivo, mice; conditions: day 56
Method: Tumours were excised and immediately frozen in dry ice, and stored at −70° C. for later in situ detection of apoptotic cells in tumours. Frozen serial sections of 6-μm thickness were fixed with paraformaldehyde solution (4% in PBS, pH 7.4), and permeabilized with a solution containing 0.1% Triton X-100 and 0.1% sodium citrate. They were incubated with 20 μl TUNEL reagent (In Situ apoptosis detection kit from Boehringer Mannheim, Germany) for 60 min at 37° C., and examined by fluorescence microscopy. Adjacent sections were counter-stained with haematoxylin to count the total number of cells, or the number of apoptotic cells in ten randomly selected fields (magnification of ×40). The apototic index (AI) was calculated as the number of apoptotic cells×100/total number of nucleated cells. For detection of apoptotic cells in vitro, the numbers of apoptotic and necrotic tumour cells were measured by staining with annexin-V-fluos, TUNEL, and trypan blue. For measurement of gut apoptosis, jejunal sections were stained by the TUNEL method using a DeadEnd™ Fluorometric TUNEL System (Promega, Madison, Wis., USA). Apoptotic cells in 10 randomly selected cypts were counted, and the data expressed as apoptotic bodies per crypt. […]

[4] = test system: EL-4 tumour cells; test: EL-4 lymphoma tumour growth in mice fed experimental diets; format: in vivo, C57BL/6 mice
From the text: Mice were challenged subcutaneously with 2×10^5 EL-4 tumour cells two weeks after being placed on the diets. Tumour size as measured by two perpendicular diameters (in centimetres) was monitored until day 91, or until tumours reached 1 cm in diameter. Each point represents the mean tumour size with 95% confidence intervals for either 6 mice, or the number of mice indicated.
Groups of six mice were fed a control AIN-93G diet, diets containing either 28 g Lf+ or 120 g of milk fat (AMF) per 2.4 Kg of diet, or a diet containing a combination of both Lf and milk fat. Day 0 refers to the day the mice were placed on their diets. After 2 weeks on the diets, 2×10^5 EL-4 cells were injected into the flanks of mice. Tumour size as measured by two perpendicular diameters (in centimetres) was monitored until day 56. Each point represents the mean tumour size with 95% confidence intervals for either 6 mice, or the number of mice indicated.
Mice were challenged subcutaneously with EL-4 tumour cells two weeks after being placed on the diets. Tumour size was again measured by two perpendicular diameters (in centimetres).

B1: Lf+: Iron-saturated bovine lactoferrin extract (100% saturated) prepared from natural bLf (protein, UniProt P24627 20-708, looked up)
Lactotransferrin: APRKNVRWCTISQPEWFKCRRWQWRMKKLGAPSITCVRRAFALECIRAIAEKKADAVTLDGGMVFEAGRDPYKLRPVAAEIYGTKESPQTHYYAVAVVKKGSNFQLDQLQGRKSCHTGLGRSAGWIIPMGILRPYLSWTESLEPLQGAVAKFFSASCVPCIDRQAYPNLCQLCKGEGENQCACSSREPYFGYSGAFKCLQDGAGDVAFVKETTVFENLPEKADRDQYELLCLNNSRAPVDAFKECHLAQVPSHAVVARSVDGKEDLIWKLLSKAQEKFGKNKSRSFQLFGSPPGQRDLLFKDSALGFLRIPSKVDSALYLGSRYLTTLKNLRETAEEVKARYTRVVWCAVGPEEQKKCQQWSQQSGQNVTCATASTTDDCIVLVLKGEADALNLDGGYIYTAGKCGLVPVLAENRKSSKHSSLDCVLRPTEGYLAVAVVKKANEGLTWNSLKDKKSCHTAVDRTAGWNIPMGLIVNQTGSCAFDEFFSQSCAPGADPKSRLCALCAGDDQGLDKCVPNSKEKYYGYTGAFRCLAEDVGDVAFVKNDTVWENTNGESTADWAKNLNREDFRLLCLDGTRKPVTEAQSCHLAVAPNHAVVSRSDRAAHVKQVLLHQQALFGKNGKNCPDKFCLFKSETKNLLFNDNTECLAKLGGRPTYEEYLGTEYVTAIANLKKCSTSPLLEACAFLTR
modifications: iron-saturated
notes: Iron-saturated bovine lactoferrin extract (100% saturated) prepared from natural bLf
reduction in number of CD31+ vessels in tumours compared to control diet [1]: 84%
reduction in tumour blood flow compared to control diet [1]: 84%
increase in anti-tumour cytolytic activity of splenocytes compared with control diet [2]: 66%
increase in tumour apoptosis compared to control diet [3]: 68%
mice that completely rejected the tumour challenge ([4]; 28 g Lf+ and/or 120 g milk fat per 2.4 Kg of diet, groups of six mice, until day 56): One of 6
mice in which appearance of tumours was delayed by one week ([4]; 28 g Lf+ or 120 g milk fat per 2.4 Kg of diet, groups of six mice): 5 of 6
effect on tumour growth / tumorigenesis in individual mice ([4]; groups of five mice, per 2.4 Kg of diet: 28 g Lf+, 120 g Phospholac 600, 1.2 g sphingomyelin): growth of two tumours being delayed by two weeks, and one by at least one week
